Measured values taken from patent publication EP4578874A1 (SunRock Biopharma S.L., dated 2025).
Residue numbers refer to the chain shown, from its start.

T1: human CCR9 (C-C chemokine receptor type 9) (human, UniProt P51686 1-369)
T1 construct: also called huCCR9; hCCR9
T1 sequence: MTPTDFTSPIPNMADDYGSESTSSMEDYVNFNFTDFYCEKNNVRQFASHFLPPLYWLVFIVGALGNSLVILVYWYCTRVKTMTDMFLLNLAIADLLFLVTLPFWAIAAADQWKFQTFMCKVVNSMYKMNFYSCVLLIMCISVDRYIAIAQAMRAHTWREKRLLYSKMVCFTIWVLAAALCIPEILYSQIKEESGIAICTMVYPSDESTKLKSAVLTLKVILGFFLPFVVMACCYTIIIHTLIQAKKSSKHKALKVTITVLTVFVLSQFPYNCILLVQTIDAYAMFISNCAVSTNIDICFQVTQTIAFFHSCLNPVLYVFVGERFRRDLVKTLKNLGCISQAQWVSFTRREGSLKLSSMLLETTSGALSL

T2: CCR9 N-terminal peptide 1 (TPTDFTSPIPNMADDYGSESTSS) (human, biotinylated in the ELISA of Example 2 (site not stated))
T2 construct: Biotin is stated for the ELISA; also called N-terminal 1; biotinylated peptide from the N-terminal region of huCCR9
T2 peptide: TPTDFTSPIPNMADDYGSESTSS

T3: hCCR9 peptide P11A-N12A (human)
T3 peptide: TDFTSPIAAMADDYGSEST

T4: hCCR9 peptide D16A-Y17A (human)
T4 peptide: TDFTSPIPNMADAAGSEST

T5: hCCR9 peptide N12A-M13A (human)
T5 peptide: TDFTSPIPAAADDYGSEST

T6: hCCR9 peptide D15A-D16A (human)
T6 peptide: TDFTSPIPNMAAAYGSEST

T7: hCCR9 peptide M13A-A14G (human)
T7 peptide: TDFTSPIPNAGDDYGSEST

T8: N-terminal 6 (SPIPNMADDYG) (human)
T8 construct: also called peptide N-terminal 6
T8 peptide: SPIPNMADDYG

B1: SRB1 (antibody, V domains shown)
VH: EVQLVESGGGLVKPGGSLRLSCAASGFTFSKFWMNWVRQAPGKGLEWVGEIRLKSNNYATHYAESVKGRFTISRDDSKNTLYLQMNSLKTEDTAVYYCTSDGWFAYWGQGTLVTVSS
VL: DVQMTQSPSSLSASVGDRVTITCRSSQSLVHSNGNTYLNWYQQKPGKAPKLLIYKVSNRFSGVPSRFSGSGSGTDFTLTISSLQPEDFATYYCSQSTHFPRTFGGGTKVEIKR
notes: Detected with anti-human Fc, so it has a human Fc; also called humanised version of the antibody 92R; positive control
B2: SRB1 pHrodo (antibody, V domains shown)
VH: B1 VH
VL: B1 VL
modifications: pHrodo fluorophore label (sites not given)
notes: also called pHrodo-labeled SRB1
B3: C9Mab-16 (antibody, V domains shown)
VH: EVKLEESGGGLVLPGGSMKLSCVASGFTFSDYWMNWVRQSPEKGLEWVAEIRSKSKNYATHYEESVRGRCTISRDDSKSSVYLQMNNLRAEDTGIYFCMFFYSPYWGQGTLVTVSA
VL: DVVMTQTPLSLPVSLGDQASISCRSSQSLVHSNGITFLHWYLQKPGQSPKLLIYKVSNRFSGVPDRFSGSGSGTDFTLKISRVEAEDLGVYFCSQTTHVPWTFGGGTKLEIKR
notes: Murine parental antibody from hybridoma; also called C9M16; clone 16
B4: C9Mab-19 (antibody, V domains shown)
VH: EVKLEESGGGLVQPGGSMKLSCVASGFTFSNYWMDWVRQSPEKGLEWVAEIRSKSNNYATHYAESMKGRFTISRDDSKSSVYLQMINLRTEDTGIYYCAFYYSPYWGQGTLVTVSA
VL: B3 VL with V30L, I35N, I80V, V99L
notes: Murine parental antibody from hybridoma; also called C9M19; clone 19
B5: IAb01 (antibody, V domains shown)
VH: EVKVEESGGGLVQPGGSMKLSCVVSGLTFSNFWMTWVRQSPEKGLEWVAEIRLKSNNYATHYAESVKGRFTISRDDSRSSVFLQMNNLRAEDTGIYYCTTDGWFAFWGQGTLVTVSA
VL: QIVLTQSPTIMSASPGEKVTITCSASSSVSYMHWFQQKPGTSPKLWIYSTSNLASGVPARFSGSGSGTSYSLTISRMEAEDAATYYCQQRSSYPFTFGSGTKLEIKR
notes: Murine antibody
B6: IAb02 (antibody, V domains shown)
VH: B5 VH with V23A, V24A, L27F, T28I, T35N, V48I, R78K, F82Y, T99A
VL: B3 VL with I35N, F37Y, H39Q, Y41H, L51F, T96S, W101R
notes: Murine antibody
B7: huC9Mab-16-VL2 (antibody, V domains shown)
VH: EVQLVESGGGLVKPGGSLRLSCAASGFTFSDYWMNWVRQAPGKGLEWVGEIRSKSKNYATHYEESVRGRFTISRDDSKNTLYLQMNSLKTEDTAVYYCMFFYSPYWGQGTLVTVSS
VL: DVVMTQSPSSLSASVGDRVTITCRSSQSLVHSNGITFLHWYQQKPGKAPKLLIYKVSNRFSGVPSRFSGSGSGTDFTLTISSLQPEDFATYYCSQTTHVPWTFGGGTKVEIK
notes: Humanized IgG made in HEK293-6E cells
B8: huC9Mab16-VL2 pHrodo (antibody, V domains shown)
VH: B7 VH
VL: B7 VL
modifications: pHrodo fluorophore label (sites not given)
notes: also called pHrodo-labeled huC9Mab16-VL2
B9: huC9Mab19-VL2 pHrodo (antibody, V domains shown)
VH: B7 VH with D31N, N35D, K56N, E63A, V66M, R67K, M99A, F101Y
VL: B7 VL with V30L, I35N, V99L
modifications: pHrodo fluorophore label (sites not given)
notes: also called pHrodo-labeled huC9Mab19-VL2
B10: huC9Mab-19-VL2 (antibody, V domains shown)
VH: B7 VH with D31N, N35D, K56N, E63A, V66M, R67K, M99A, F101Y
VL: B7 VL with V30L, I35N, V99L
notes: as for B7

Columns and labels:
[1] = target: T1, human CCR9 (C-C chemokine receptor type …); assay: flow cytometry on MOLT-4 cells; antibody incubated 4 days at 23°C
[2] = target: T1, human CCR9 (C-C chemokine receptor type …); assay: flow cytometry on huCCR9-expressing HEK293 cells, PE anti-human Fc, mean ± SD, n=3
[3] = target: T1, human CCR9 (C-C chemokine receptor type …); assay: flow cytometry on CCR9-expressing MOLT-4 cells, PE anti-human Fc, mean ± SD, n=3
[4] = target: T2, CCR9 N-terminal peptide 1 …; assay: ELISA, plate coated with biotinylated CCR9 N-terminal peptide 1, anti-human Fc detection, n=2
[5] = target: T1, human CCR9 (C-C chemokine receptor type …); assay: flow cytometry on MOLT-4 cells, unlabeled antibody, n=1
[6] = target: T1, human CCR9 (C-C chemokine receptor type …); assay: flow cytometry on MOLT-4 cells; antibody incubated 4 days at 40°C
[7] = target: T1, human CCR9 (C-C chemokine receptor type …); assay: cell-based or functional assay
[8] = target: T1, human CCR9 (C-C chemokine receptor type …); assay: flow cytometry on MOLT-4 cells; antibody kept 4 days at 4°C (control)
[9] = target: T1, human CCR9 (C-C chemokine receptor type …); assay: flow cytometry on MOLT-4 cells, pHrodo-labeled antibody, n=1
hCCR9 peptide P11A-N12A [10] = target: T3, hCCR9 peptide P11A-N12A; assay: 2 x Ala-scan with substituted hCCR9 peptides (Fig. 9A)
hCCR9 peptide D16A-Y17A [11] = target: T4, hCCR9 peptide D16A-Y17A; assay: as above
hCCR9 peptide N12A-M13A [12] = target: T5, hCCR9 peptide N12A-M13A; assay: as above
hCCR9 peptide D15A-D16A [13] = target: T6, hCCR9 peptide D15A-D16A; assay: as above
hCCR9 peptide M13A-A14G [14] = target: T7, hCCR9 peptide M13A-A14G; assay: as above
hCCR9 peptide P11A-N12A [15] = target: T3, hCCR9 peptide P11A-N12A; assay: 2 x Ala-scan with substituted hCCR9 peptides (Fig. 9B)
hCCR9 peptide D16A-Y17A [16] = target: T4, hCCR9 peptide D16A-Y17A; assay: as above
hCCR9 peptide N12A-M13A [17] = target: T5, hCCR9 peptide N12A-M13A; assay: as above
hCCR9 peptide D15A-D16A [18] = target: T6, hCCR9 peptide D15A-D16A; assay: as above
hCCR9 peptide M13A-A14G [19] = target: T7, hCCR9 peptide M13A-A14G; assay: as above
[20] = target: T1, human CCR9 (C-C chemokine receptor type …); assay: screen of murine hybridoma antibodies for affinity to CCR9 (ELISA, then flow cytometry); format not detailed
[21] = target: T8, N-terminal 6 (SPIPNMADDYG); assay: peptide inhibition: 1 µg/mL antibody pre-incubated with 100 µg/mL peptide, then binding to MOLT-4 cells by flow cytometry

| Binder | EC50 [1] [nM] | EC50 [2] [nM] | EC50 [3] [nM] | EC50 [4] [nM] | EC50 [5] [nM] | EC50 [6] [nM] | EC50 of cytotoxicity (ADCC, specific lysis of CFSE-stained MOLT-4 cells), PBMC batch HN#1 [7] [nM] | EC50 of cytotoxicity (ADCC, specific lysis of CFSE-stained MOLT-4 cells), PBMC batch HN#2 [7] [nM] | EC50 [8] [nM] | EC50 [9] [nM] | also measured |
| --- | --- | --- | --- | --- | --- | --- | --- | --- | --- | --- | --- |
| B1 | 0.02 | 0.04 | 0.04 | 19.2 | 0.07 | 0.05 | 0.0008 | 0.003 | 0.05 |  |  |
| B2 |  |  |  |  |  |  |  |  |  | 0.08 |  |
| B3 |  |  |  |  |  |  |  |  |  |  | binding result (hCCR9 peptide P11A-N12A [10]): no binding; binding result (hCCR9 peptide D16A-Y17A [11]): no binding; binding result (hCCR9 peptide N12A-M13A [12]): no binding; binding result (hCCR9 peptide D15A-D16A [13]): no binding; binding result (hCCR9 peptide M13A-A14G [14]): no binding |
| B4 |  |  |  |  |  |  |  |  |  |  | binding result (hCCR9 peptide P11A-N12A [15]): no binding; binding result (hCCR9 peptide D16A-Y17A [16]): no binding; binding result (hCCR9 peptide N12A-M13A [17]): no binding; binding result (hCCR9 peptide D15A-D16A [18]): no binding; binding result (hCCR9 peptide M13A-A14G [19]): no binding |
| B5 |  |  |  |  |  |  |  |  |  |  | binding result [20]: binds |
| B6 |  |  |  |  |  |  |  |  |  |  | binding result [20]: binds |
| B7 | 0.4 | 0.1 | 0.24 | 0.546 | 0.27 | 0.25 | 0.005 | 0.01 | 0.4 |  | binding result [21]: binds |
| B8 |  |  |  |  |  |  |  |  |  | 0.51 |  |
| B9 |  |  |  |  |  |  |  |  |  | 2.05 |  |
| B10 | 2.04 | 0.92 | 0.59 | 14.1 | 0.6 | 2 | 0.23 | 0.06 | 1.86 |  | binding result [21]: binds |
